Results published in the supplement of paper PMC7877785.
± gives the uncertainty stated by the source.

Experiment: self-splicing fitness, log relative to wild type (ln ratio); higher = more splicing; Tetrahymena group I intron in knt gene, E. coli kanamycin selection, DiMSum; sequences stand for … in CUCUCU…GGAGGGAAAAGUUAUCAGGCAUGCACCUGGUAGCUAGUCUUUAAACCAAUAGAUUGCAUCGGUUUAAAAGGCAAGACCGUCAAAUUGCGGGAAAGGGGUCAACAGCCGUUCAGUACCAAGUCUCAGGGGAAACUUUGAGAUGGCCUUGCAAAGGGUAUGGUAAUAAGCUGACGGACAUGGUCCUAACCACGCAGCCAAGUCCUAAGUCAACAGAUCUUCUGUUGAUAUGGAUGCAGUUCACAGACUAAAUGUCGGUCGGGGAAGAUGUAUUCUUCUCAUAAGAUAUAGUCGGACCUCUCCUUAAUGGGAGCUAGCGGAUGAAGUGAUGCAACACUGGAGCCGCUGGGAACUAAUUUGUAUGCGAAAGUAUAUUGAUUAGUUUUGGAGUACUCGUGGUCG
Procedure, shortened: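 Pooled colonies went to amplicon sequencing on an Illumina HiSeq 2500 after six replicate transformations. The plates were LB agar with 100 μg/mL carbenicillin, 50 μM IPTG and 0.2% rhamnose, with or without 25 μg/mL kanamycin, incubated overnight at 37°C or 30°C. The E. coli BL21(DE3) library had all eight P1ex-region intron nucleotides randomised, the intron placed in the knt kanamycin-resistance gene on pET-22b(+). DiMSum fitness is the error-weighted combination of replicate fold changes, kanamycin against none, normalised to wild type.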

Sequence	self-splicing fitness (ln) (30 °C)	self-splicing fitness (ln) (37 °C)
AUCCAGCAAUAUUACGGGUU	-3.75 ± 0.15	-2.89 ± 0.21
GGUAAGCAAUAUUACGCCGG	-3.09 ± 0.47	-1.93 ± 0.47
CAGUAGCAAUAUUACGGUAC	-5 ± 0.45	-3 ± 0.27
AACGAGCAAUAUUACGCGCC	-2.77 ± 0.3	-2.61 ± 0.48
UUUAAGCAAUAUUACGCCCA	0.412 ± 0.32	0.619 ± 0.37
ACUGAGCAAUAUUACGCACA	-2.37 ± 0.4	-2.15 ± 0.29
UCUAAGCAAUAUUACGGCAA	-1.94 ± 0.34	-1.22 ± 0.21
AUAGAGCAAUAUUACGUUUG	-1.43 ± 0.11	-2 ± 0.21
AAACAGCAAUAUUACGUGUC	-4.08 ± 0.15	-2.78 ± 0.13
UUAUAGCAAUAUUACGCCGA	-0.888 ± 0.2	0.064 ± 0.25
UAGAAGCAAUAUUACGCUUU	–	-1.99 ± 0.3
AUGCAGCAAUAUUACGACCA	-1.45 ± 0.17	-0.579 ± 0.18
AGCUAGCAAUAUUACGCGGG	-3.3 ± 0.15	-1.53 ± 0.14
UCUAAGCAAUAUUACGAGUA	-2.23 ± 0.15	-1.02 ± 0.14
CCCUAGCAAUAUUACGGCGU	-2.1 ± 0.15	-2.35 ± 0.17
GGCCAGCAAUAUUACGUCGU	-1.18 ± 0.061	-0.452 ± 0.072
CUCAAGCAAUAUUACGUGUG	-2.73 ± 0.074	-1.42 ± 0.072
GUAAAGCAAUAUUACGCGCA	0.459 ± 0.16	-0.0064 ± 0.17
ACGAAGCAAUAUUACGUUCG	-1.3 ± 0.083	-0.906 ± 0.11
AUGCAGCAAUAUUACGAUGA	-1.93 ± 0.16	-1.04 ± 0.14
CUUCAGCAAUAUUACGGAUA	-1.97 ± 0.12	-0.695 ± 0.11
AUGCAGCAAUAUUACGCGUA	-2.09 ± 0.18	-1.71 ± 0.2
CGUAAGCAAUAUUACGGCCG	-0.668 ± 0.11	0.0976 ± 0.13
CUCUAGCAAUAUUACGUACU	-3.33 ± 0.27	-2.39 ± 0.25
GCGUAGCAAUAUUACGGGCU	-3.57 ± 0.32	-1.62 ± 0.2
CACUAGCAAUAUUACGAUUA	-1.21 ± 0.21	-2.44 ± 0.28

Sequence	self-splicing fitness (ln) (30 °C)	self-splicing fitness (ln) (37 °C)
UGGCAGCAAUAUUACGGACA	0.0855 ± 0.098	0.0548 ± 0.14
GUCAAGCAAUAUUACGAUAC	-3.1 ± 0.14	-1.16 ± 0.09
CCGCAGCAAUAUUACGACGU	-3.96 ± 0.21	-2.38 ± 0.22
UUUAAGCAAUAUUACGUGUG	-1.24 ± 0.096	-0.602 ± 0.093
AGGAAGCAAUAUUACGGGUU	-3.14 ± 0.15	-1.96 ± 0.15
CGAAAGCAAUAUUACGUGCC	-3.18 ± 0.17	-1.95 ± 0.17
UUUUAGCAAUAUUACGAUUG	-1.52 ± 0.14	-0.255 ± 0.16
GGGAAGCAAUAUUACGUGGU	-4.31 ± 0.27	-3.33 ± 0.47
GUUCAGCAAUAUUACGCGUU	-0.588 ± 0.062	0.431 ± 0.067
CUCUAGCAAUAUUACGUCGU	-3.66 ± 0.26	-4.15 ± 0.36
AUGCAGCAAUAUUACGCCCC	-0.386 ± 0.27	-1.04 ± 0.27
CUCGAGCAAUAUUACGUUGC	-3.84 ± 0.42	-3.45 ± 0.37
UCCGAGCAAUAUUACGGACG	-3.59 ± 0.24	-2.37 ± 0.25
CGACAGCAAUAUUACGAGGA	-3.91 ± 0.2	-2.53 ± 0.18
ACGAAGCAAUAUUACGUCGG	-1.67 ± 0.1	-1.65 ± 0.11
CCCCAGCAAUAUUACGUGGU	-2.64 ± 0.1	-2.98 ± 0.2
UAAUAGCAAUAUUACGUUAG	-1.84 ± 0.094	-1.13 ± 0.12
GGUCAGCAAUAUUACGCACG	0.0799 ± 0.1	0.287 ± 0.13
AAGCAGCAAUAUUACGACGC	-0.811 ± 0.092	-0.525 ± 0.13
GGUGAGCAAUAUUACGGUAA	–	-2.66 ± 0.4
CGUGAGCAAUAUUACGGAUA	-3.1 ± 0.3	-2.71 ± 0.34
AAUUAGCAAUAUUACGCCAG	–	-2.11 ± 0.31
UAAGAGCAAUAUUACGGUAC	–	-2.25 ± 0.41
UAAAAGCAAUAUUACGCCAG	-1.34 ± 0.12	-0.458 ± 0.17
GUUAAGCAAUAUUACGGACA	-0.907 ± 0.21	-1.18 ± 0.21
UACAAGCAAUAUUACGACAG	-1.15 ± 0.092	-0.241 ± 0.11

Sequence	self-splicing fitness (ln) (30 °C)	self-splicing fitness (ln) (37 °C)
AGUAAGCAAUAUUACGUAAA	-3.2 ± 0.34	-1.75 ± 0.21
CCUUAGCAAUAUUACGUUGU	-3.12 ± 0.17	-3.27 ± 0.24
AGACAGCAAUAUUACGCGAG	-1.22 ± 0.091	-0.818 ± 0.094
GCGAAGCAAUAUUACGCCUC	-2.7 ± 0.42	–
GCACAGCAAUAUUACGCAGA	-3.16 ± 0.28	-3.06 ± 0.29
UGUAAGCAAUAUUACGGCCG	-0.494 ± 0.17	-0.516 ± 0.25
GACUAGCAAUAUUACGCGUC	-3.14 ± 0.16	-2.78 ± 0.23
GCUGAGCAAUAUUACGUUUG	-2.85 ± 0.17	-2.76 ± 0.25
CGAAAGCAAUAUUACGGGAU	-2.98 ± 0.21	-2.87 ± 0.27
AACGAGCAAUAUUACGAUCU	-0.758 ± 0.088	-0.0761 ± 0.1
AAGAAGCAAUAUUACGGAGA	-3.38 ± 0.19	-2.62 ± 0.2
AAGAAGCAAUAUUACGUGCG	-0.93 ± 0.079	-0.0711 ± 0.1
GGCAAGCAAUAUUACGGCUC	-2.55 ± 0.25	-0.854 ± 0.21
AGCAAGCAAUAUUACGCACA	-0.316 ± 0.082	0.365 ± 0.12
GCGGAGCAAUAUUACGUGGC	-2.82 ± 0.18	-3.01 ± 0.43
UGGAAGCAAUAUUACGCUCG	-0.853 ± 0.13	-0.272 ± 0.15
UCGUAGCAAUAUUACGUGCA	-1.18 ± 0.094	-1.14 ± 0.12
CAUCAGCAAUAUUACGCUGU	-3.65 ± 0.18	-1.84 ± 0.15
CUAUAGCAAUAUUACGUGGC	-2.86 ± 0.24	-1.8 ± 0.28
GAGAAGCAAUAUUACGUCAU	-2.57 ± 0.097	-0.577 ± 0.089
GCCCAGCAAUAUUACGGGCU	-3.75 ± 0.16	-2.81 ± 0.15
ACGAAGCAAUAUUACGUAGU	-3.12 ± 0.12	-2.13 ± 0.17
GUCAAGCAAUAUUACGCUUA	-2.07 ± 0.14	-0.67 ± 0.12
ACGCAGCAAUAUUACGCUGU	-2.71 ± 0.14	-3.83 ± 0.28
GGACAGCAAUAUUACGGAUG	-3.44 ± 0.16	-0.131 ± 0.11
